From article PMC2880861 (New journal of chemistry = Nouveau journal de chimie, 2010)

Columns and labels:
[1] = molecular target: soluble fibrin fragment DD(E); experiment: DD; details: read-out: Ki, inhibition of binding of a fluorescent peptide to DD(E); TBS·Ca; DD(E) 1.5 μM, Fl 1 μM; uncertainties estimated at ±10%
[2] = in vitro; details: male, Sprague Dawley, rat, tissue homogenate
[3] = rat, tissue homogenate
[4] = molecular target: T1, human fibrinogen (Homo sapiens, UniProt P02671+P02675+P02679); experiment: NMRD relaxivity in human fibrinogen/TBS solution; type: physicochemical; details: 30 μM human fibrinogen/TBS, 35 °C
T1 sequence (P02671 20-629 limits assumed): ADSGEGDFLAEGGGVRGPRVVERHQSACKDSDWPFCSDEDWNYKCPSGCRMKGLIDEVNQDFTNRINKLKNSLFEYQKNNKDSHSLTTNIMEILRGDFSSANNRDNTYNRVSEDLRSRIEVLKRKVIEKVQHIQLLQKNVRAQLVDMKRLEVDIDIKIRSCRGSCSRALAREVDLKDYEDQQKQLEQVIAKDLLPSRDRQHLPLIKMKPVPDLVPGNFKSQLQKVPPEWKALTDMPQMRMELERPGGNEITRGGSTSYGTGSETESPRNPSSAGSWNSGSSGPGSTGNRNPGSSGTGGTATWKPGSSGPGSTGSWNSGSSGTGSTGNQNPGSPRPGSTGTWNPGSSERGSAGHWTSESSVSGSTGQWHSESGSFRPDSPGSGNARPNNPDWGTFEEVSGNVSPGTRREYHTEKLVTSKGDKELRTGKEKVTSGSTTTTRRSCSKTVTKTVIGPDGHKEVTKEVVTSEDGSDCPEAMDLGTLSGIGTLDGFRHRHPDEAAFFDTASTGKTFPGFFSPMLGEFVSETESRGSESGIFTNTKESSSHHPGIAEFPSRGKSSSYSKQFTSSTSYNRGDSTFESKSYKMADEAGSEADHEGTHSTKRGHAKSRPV
T1 sequence (P02675 31-491): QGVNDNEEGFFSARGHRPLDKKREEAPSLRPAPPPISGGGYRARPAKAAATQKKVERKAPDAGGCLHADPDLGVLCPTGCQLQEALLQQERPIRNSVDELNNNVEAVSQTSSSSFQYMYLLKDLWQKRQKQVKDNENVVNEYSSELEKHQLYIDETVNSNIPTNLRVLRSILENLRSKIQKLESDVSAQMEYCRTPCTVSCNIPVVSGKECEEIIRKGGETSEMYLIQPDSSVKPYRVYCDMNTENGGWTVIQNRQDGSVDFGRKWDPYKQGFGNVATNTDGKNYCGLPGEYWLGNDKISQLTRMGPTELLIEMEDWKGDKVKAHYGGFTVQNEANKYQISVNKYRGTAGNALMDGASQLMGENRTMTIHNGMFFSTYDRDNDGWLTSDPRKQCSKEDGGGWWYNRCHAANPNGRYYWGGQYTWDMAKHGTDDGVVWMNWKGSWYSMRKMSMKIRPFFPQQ
T1 sequence (P02679 27-433 limits assumed): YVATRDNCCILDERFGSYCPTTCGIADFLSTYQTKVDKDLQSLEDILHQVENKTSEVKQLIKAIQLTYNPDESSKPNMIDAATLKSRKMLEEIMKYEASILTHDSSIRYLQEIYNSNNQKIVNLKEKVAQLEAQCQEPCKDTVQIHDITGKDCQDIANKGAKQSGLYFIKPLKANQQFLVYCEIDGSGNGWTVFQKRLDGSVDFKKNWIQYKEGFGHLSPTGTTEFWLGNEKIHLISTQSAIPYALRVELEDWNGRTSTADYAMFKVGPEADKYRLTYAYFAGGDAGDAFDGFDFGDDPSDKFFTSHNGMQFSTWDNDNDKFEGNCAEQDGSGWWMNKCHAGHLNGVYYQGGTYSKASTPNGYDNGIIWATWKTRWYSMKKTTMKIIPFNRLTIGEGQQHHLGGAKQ

[5] = molecular target: T2, gelled human fibrin (Homo sapiens, UniProt P02671+P02675+P02679); experiment: Relaxivity / variable temperature NMRD in fibrin gel; type: physicochemical
T2 sequence (P02671 20-644 isoform P02671-2 limits assumed): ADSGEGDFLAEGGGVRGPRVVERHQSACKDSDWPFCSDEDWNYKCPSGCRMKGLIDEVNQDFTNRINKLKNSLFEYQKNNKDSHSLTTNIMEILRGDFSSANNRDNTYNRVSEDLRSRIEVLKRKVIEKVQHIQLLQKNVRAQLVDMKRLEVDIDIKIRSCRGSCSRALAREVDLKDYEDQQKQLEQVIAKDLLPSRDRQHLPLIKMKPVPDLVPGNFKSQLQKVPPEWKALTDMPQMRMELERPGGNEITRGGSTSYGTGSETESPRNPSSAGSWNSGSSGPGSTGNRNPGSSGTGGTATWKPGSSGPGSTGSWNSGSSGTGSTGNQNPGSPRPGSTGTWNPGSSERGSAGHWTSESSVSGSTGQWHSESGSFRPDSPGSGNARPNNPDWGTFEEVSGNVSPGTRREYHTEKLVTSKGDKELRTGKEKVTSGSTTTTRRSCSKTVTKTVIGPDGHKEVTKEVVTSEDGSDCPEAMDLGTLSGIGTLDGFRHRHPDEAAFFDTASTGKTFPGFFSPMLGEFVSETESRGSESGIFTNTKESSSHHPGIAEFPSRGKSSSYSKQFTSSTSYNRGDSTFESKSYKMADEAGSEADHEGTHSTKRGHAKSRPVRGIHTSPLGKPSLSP
T2 sequence (P02675 45-491 limits assumed): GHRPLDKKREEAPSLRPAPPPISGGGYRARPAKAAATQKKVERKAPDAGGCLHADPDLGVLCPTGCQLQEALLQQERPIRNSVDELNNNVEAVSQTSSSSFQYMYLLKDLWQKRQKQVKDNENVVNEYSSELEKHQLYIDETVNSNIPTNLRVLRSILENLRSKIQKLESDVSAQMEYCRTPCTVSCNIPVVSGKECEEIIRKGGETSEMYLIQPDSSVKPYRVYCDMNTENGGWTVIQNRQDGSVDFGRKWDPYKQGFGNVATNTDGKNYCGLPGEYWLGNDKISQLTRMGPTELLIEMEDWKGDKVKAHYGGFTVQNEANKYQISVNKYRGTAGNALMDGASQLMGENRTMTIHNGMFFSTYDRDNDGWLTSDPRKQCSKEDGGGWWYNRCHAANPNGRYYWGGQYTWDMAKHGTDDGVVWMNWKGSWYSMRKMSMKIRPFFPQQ
T2 sequence (P02679 27-437 isoform P02679-2 limits assumed): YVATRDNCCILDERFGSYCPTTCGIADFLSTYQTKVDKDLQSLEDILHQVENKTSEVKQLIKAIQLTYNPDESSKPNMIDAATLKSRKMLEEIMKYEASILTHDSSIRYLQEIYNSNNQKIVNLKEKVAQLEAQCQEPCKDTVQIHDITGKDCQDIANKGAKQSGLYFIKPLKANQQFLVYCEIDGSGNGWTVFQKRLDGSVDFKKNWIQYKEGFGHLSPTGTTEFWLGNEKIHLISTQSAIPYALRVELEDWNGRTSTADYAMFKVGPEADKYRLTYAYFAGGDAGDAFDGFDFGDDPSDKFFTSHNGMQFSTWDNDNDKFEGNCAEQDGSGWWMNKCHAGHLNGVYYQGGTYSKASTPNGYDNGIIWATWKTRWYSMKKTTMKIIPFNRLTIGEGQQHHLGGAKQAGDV

[6] = test system: arterial thrombosis; details: guinea pig; cited from earlier work
[7] = Variable temperature NMRD and O-17 NMR relaxation in TBS; type: physicochemical

Row | Ki [1] | binding to fibrinogen (from relaxivity enhancement) [4] | fraction bound to fibrin ([5]; 50 μM 5 in 30 μM fibrin gel, based on the measured binding constant) | Compound | half-life at 100 µM [2] | fold increase in metabolic stability [3] | ΔEl^‡ (temperature dependence of τloc) ([5]; 30 μM fibrin gel (FBN)) | τloc^37 ([5]; 30 μM fibrin gel (FBN), 37 °C) | τR^37 (global) ([5]; 30 μM fibrin gel (FBN), Lipari-Szabo model) | F^2 ([5]; 30 μM fibrin gel (FBN), dimensionless order parameter) | relaxivity per Gd ([5]; bound to fibrin at 1.5T) | relaxivity per molecule ([5]; bound to fibrin at 1.5T) | global τR ([5]; fibrin-bound, best fits) | efficacy in arterial thrombosis model [6] | ΔER^‡ (temperature dependence of τR) [7] | ΔH^‡ (temperature dependence of τm) [7] | Δ^2 ×10^−18 [7] | τm^37 ([7]; 37 °C) | τv^37 ([7]; 37 °C) | τR^37 ([7]; 37 °C, isotropic model of rotation) | F^2 ([7]; dimensionless)
1 | 12 µM |  |  | CC(C)C[C@H](NC(=O)[C@@H]1CSSC[C@H](NC(=O)[C@@H]2CCCN2C(=O)[C@H](CC(C)C)NC(=O)[C@H](CNC(=O)C(CN(CCN(CC(=O)O)CC(=O)O)CC(=O)O)N(CC(=O)O)CC(=O)O)NC(=O)C(CN(CCN(CC(=O)O)CC(=O)O)CC(=O)O)N(CC(=O)O)CC(=O)O)C(=O)N[C@@H](CC(=O)O)C(=O)N[C@@H](Cc2ccc(O)cc2)C(=O)N[C@@H](Cc2ccc(O)cc2)C(=O)NCC(=O)N[C@@H]([C@@H](C)O)C(=O)N1)C(=O)N[C@@H](CC(=O)O)C(=O)NCc1ccc(CNC(=O)[C@H](CNC(=O)C(CN(CCN(CC(=O)O)CC(=O)O)CC(=O)O)N(CC(=O)O)CC(=O)O)NC(=O)C(CN(CCN(CC(=O)O)CC(=O)O)CC(=O)O)N(CC(=O)O)CC(=O)O)cc1 (some centres unmarked) [Compound 4] | 1.09 h | 6 to 7 fold |  |  |  |  |  |  |  |  |  |  |  |  |  |  | 
2 |  | does not bind/binds weakly to fibrinogen | 81% | CC(C)C[C@H](NC(=O)CN(CCNC(=O)C(CN(CCN(CC(=O)O)CC(=O)O)CC(=O)O)N(CC(=O)O)CC(=O)O)CCNC(=O)C(CN(CCN(CC(=O)O)CC(=O)O)CC(=O)O)N(CC(=O)O)CC(=O)O)C(=O)N1CCC[C@H]1C(=O)N[C@H]1CSSC[C@@H](C(=O)N[C@@H](Cc2ccc(-c3ccccc3)cc2)C(=O)N[C@@H](CC(=O)O)C(=O)NCc2cccc(CNC(=O)CN(CCNC(=O)C(CN(CCN(CC(=O)O)CC(=O)O)CC(=O)O)N(CC(=O)O)CC(=O)O)CCNC(=O)C(CN(CCN(CC(=O)O)CC(=O)O)CC(=O)O)N(CC(=O)O)CC(=O)O)c2)NC(=O)[C@H]([C@@H](C)O)NC(=O)CNC(=O)[C@H](Cc2ccc(O)cc2)NC(=O)[C@H](Cc2ccc(O)cc2)NC(=O)[C@H](CC(=O)O)NC1=O (some centres unmarked) [Compound 5] |  |  | 7.17 ± 0.48 kcal/mol | 720±20 ps | >20,000 (NA) ps | 0.08 ±0.02 | 18 mM⁻¹ s⁻¹ | 72 mM⁻¹ s⁻¹ | > 20 ns | showed efficacy | 5.95 ± 0.096 kcal/mol | 10.9 ± 0.335 kcal/mol | 10.2 ±0.5 s^2 | 124±9 ns | 18.0 ±1.7 ps | 389±4 ps | 1
